We go through three molecules from publication PMC7195465, “Molecular mechanism of light-driven sodium pumping” (Nature Communications, 2020).

Holding throughout (assay): crystal structure; in meso (monoolein) crystals, 1.2 M sodium malonate pH 8.0, grown at 22 °C; pentameric form, space group C222_(1); data at 100 K and at room temperature
Data set [1] deals with KR2-D116N (Krokinobacter eikastus).
Data set [2] concerns the target KR2-H30A (Krokinobacter eikastus).
Data set [3] concerns the molecule itself.

As to KR2-D116N (natural protein), the stoichiometry N in data set [1] is 5.

With KR2-H30A (natural protein), the stoichiometry N in data set [2] came to 5.

B1: light-driven sodium-pumping rhodopsin KR2 from Krokinobacter eikastus (natural protein)
chain: MTQELGNANFENFIGATEGFSEIAYQFTSHILTLGYAVMLAGLLYFILTIKNVDKKFQMSNILSAVVMVSAFLLLYAQAQNWTSSFTFNEEVGRYFLDPSGDLFNNGYRYLNWLIDVPMLLFQILFVVSLTTSKFSSVRNQFWFSGAMMIITGYIGQFYEVSNLTAFLVWGAISSAFFFHILWVMKKVINEGKEGISPAGQKILSNIWILFLISWTLYPGAYLMPYLTGVDGFLYSEDGVMARQLVYTIADVSSKVIYGVLLGNLAITLSKNKELVEANS
modifications: retinal covalently bound to the lysine residue of helix G via the Schiff base
notes: KR2, light-driven Na+-pumping rhodopsin of Krokinobacter eikastus; Pentamer in the crystals grown at pH 8.0; the construct is not described beyond 'KR2 expression plasmid'; also called KR2-WT; WT protein; source: E. coli SE1 (Staby Codon T7), purified (DDM solubilisation, Ni-NTA, SEC)
Consider B1, for which the “stoichiometry N” value in data set [3] came to 5.
